One block for each molecule: values may come before it.
How the values were obtained:
[1] = target: T1, RdfS (Mesorhizobium japonicum R7A (ICEMlSymR7A)) (UniProt Q7AL96); assay: EMSA; conditions: EMSA: DNA master mix 50 mM Tris-HCl, 150 mM NaCl, 5% glycerol, pH 7.4, 1 unit poly[d(I-C)] (10 of 20 uL), 10 nM DNA; SPR: ReDCaT on Biacore T200, 1 uM protein …
T1 sequence: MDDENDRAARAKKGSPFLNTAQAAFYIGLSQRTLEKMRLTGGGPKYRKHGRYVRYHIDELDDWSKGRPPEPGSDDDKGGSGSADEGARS

[2] = system: RdfS13-89 (Mesorhizobium japonicum R7A (ICEMlSymR7A)); assay: EMSA; conditions: EMSA: DNA master mix 50 mM Tris-HCl, 150 mM NaCl, 5% glycerol, pH 7.4, 1 unit poly[d(I-C)] (10 of 20 uL), 10 nM DNA; SPR: ReDCaT on Biacore T200, 1 uM protein …
[3] = target: RdfS, recombination directionality factor of ICEMlSym^R7A (6H tag removed) (Mesorhizobium japonicum R7A); assay: SEC; analytical gel filtration, Superdex 75 10/300 GL, 50 mM Tris–HCl, 300 mM NaCl, 5% (v/v) glycerol, pH 7.4, 4°C, 0.5 ml/min; protein at ∼7 mg/ml, 50 μl injected; no DNA
[4] = target: RdfS_(13–89), α1-truncated RdfS (Mesorhizobium japonicum R7A); assay: as above
[5] = target: 6H-RdfS, N-terminal hexahistidine fusion of RdfS (Mesorhizobium japonicum R7A); assay: SEC-SAXS; SEC-SY-SAXS (Australian Synchrotron) of 6H-RdfS bound to the 40-bp dsDNA attP_8; mass of the nucleoprotein complex from scattering
6H-RdfS = target: T2, 6H-RdfS (Mesorhizobium japonicum R7A …, UniProt Q7AL96 1-89); assay: SEC-SAXS; 4:1 protein:dsDNA; EMSA: DNA master mix 50 mM Tris-HCl, 150 mM NaCl, 5% glycerol, pH 7.4, 1 unit poly[d(I-C)] (10 of 20 uL), 10 nM DNA; SPR: ReDCaT on Biacore T200, 1 uM protein; conditions: protein: recombinant; tags: N-terminal 6xHis; chain copies: 4; blunt
T2 sequence: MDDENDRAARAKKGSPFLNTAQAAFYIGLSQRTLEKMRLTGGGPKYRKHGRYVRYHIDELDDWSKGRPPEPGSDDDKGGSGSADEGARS

- stoichiometry N [4]: 2
Molecule: RdfS_(13–89), α1-truncated RdfS (domain or fragment)

- stoichiometry N [5]: 4
Molecule: 6H-RdfS, N-terminal hexahistidine fusion of RdfS (natural protein)

The next lines start with the molecule.

Molecule: GCCGGCTCAAGCCCTCGCGCCGCAACTCGGCGCGGGGGTTCCCGCCGACGCTCGCCCGAAGGGGCGGCGAAAACTCCCACCCGACTCTTCGCCCGTCCCCACGACGACCTCGTTCGCCGATCCTCGCGGTTGCTTGTCCGAAGCGAAACGAGGACC (double strand) [PrdfS 162 bp]
- binding [1]: binds

Molecule: attP 283 bp
- binding signal (% of RdfS affinity) [2]: 50

Molecule: RdfS, recombination directionality factor of ICEMlSym^R7A (6H tag removed) (natural protein)
- stoichiometry N [3]: 4

B1: attP_8 40-mer (dsDNA)
DNA 1: GAATTTCGGCGCAGTTGGTCCAACGAGGCGGGGGGCTGGT
DNA 2: ACCAGCCCCCCGCCTCGTTGGACCAACTGCGCCGAAATTC
- binding result (6H-RdfS): binds
